Laboratory results from publication PMC314469, “Protein Interaction Networks by Proteome Peptide Scanning” (PLoS Biology, 2004).

Experiments:
Assay in all cases: SPOT array
[1] = target: Sho1 SH3 (SHO1_YEAST), P40073
[2] = target: T1, Boi2 SH3 (BOI2_YEAST), P39969
T1 chain: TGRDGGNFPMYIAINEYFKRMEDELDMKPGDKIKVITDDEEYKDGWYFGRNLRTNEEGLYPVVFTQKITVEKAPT

[3] = target: T2, Rvs167 SH3 (RV167_YEAST), P39743
T2 chain: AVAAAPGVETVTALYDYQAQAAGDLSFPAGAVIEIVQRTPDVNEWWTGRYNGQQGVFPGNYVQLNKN

[4] = target: T3, Boi1 SH3 (BOI1_YEAST), P38041
T3 chain: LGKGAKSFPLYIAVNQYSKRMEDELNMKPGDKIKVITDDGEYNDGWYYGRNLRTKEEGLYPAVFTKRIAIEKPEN

[5] = target: T4, Myo5 SH3 (MYO5_YEAST), Q04439
T4 chain: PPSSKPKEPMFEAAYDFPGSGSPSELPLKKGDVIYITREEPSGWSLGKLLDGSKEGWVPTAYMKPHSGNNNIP

[6] = target: T5, Yfr024 SH3 (LSB3_YEAST), P43603
T5 chain: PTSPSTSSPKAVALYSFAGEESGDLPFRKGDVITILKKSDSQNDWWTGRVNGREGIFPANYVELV

[7] = target: T6, Yhr016c SH3 (YSC84_YEAST), P32793
T6 chain: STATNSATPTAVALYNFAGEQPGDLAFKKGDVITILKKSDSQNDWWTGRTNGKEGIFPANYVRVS

Sho1 SH3 (SHO1_YEAST), P40073, sequence (P40073 295-366): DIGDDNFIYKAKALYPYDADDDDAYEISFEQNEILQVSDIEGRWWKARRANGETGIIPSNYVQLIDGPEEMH

Binder: FHDPKFIPNKPYRQ [YGR019W 335-348]
- normalised SPOT signal, Boehringer light units (BLU); mean over the file's lines of this peptide [1]: 122
- normalised SPOT signal, Boehringer light units (BLU); mean over the file's lines of this peptide [2]: 16.3
- normalised SPOT signal, Boehringer light units (BLU); mean over the file's lines of this peptide [3]: 28.7
- normalised SPOT signal, Boehringer light units (BLU); mean over the file's lines of this peptide [4]: 518
- normalised SPOT signal, Boehringer light units (BLU); mean over the file's lines of this peptide [5]: 300
- normalised SPOT signal, Boehringer light units (BLU); mean over the file's lines of this peptide [6]: 498
- normalised SPOT signal, Boehringer light units (BLU); mean over the file's lines of this peptide [7]: 113

Binder: FKVYRWNPDEPSAK [YLL041C 36-49]
- normalised SPOT signal, Boehringer light units (BLU); mean over the file's lines of this peptide [1]: 75.1
- normalised SPOT signal, Boehringer light units (BLU); mean over the file's lines of this peptide [2]: 28.9
- normalised SPOT signal, Boehringer light units (BLU); mean over the file's lines of this peptide [3]: 99.4
- normalised SPOT signal, Boehringer light units (BLU); mean over the file's lines of this peptide [4]: 892
- normalised SPOT signal, Boehringer light units (BLU); mean over the file's lines of this peptide [5]: 99
- normalised SPOT signal, Boehringer light units (BLU); mean over the file's lines of this peptide [6]: 154
- normalised SPOT signal, Boehringer light units (BLU); mean over the file's lines of this peptide [7]: 29.3

Binder: FQDYRSSPWSPSRS [YLR169W 87-100]
- normalised SPOT signal, Boehringer light units (BLU); mean over the file's lines of this peptide [1]: 953
- normalised SPOT signal, Boehringer light units (BLU); mean over the file's lines of this peptide [2]: 314
- normalised SPOT signal, Boehringer light units (BLU); mean over the file's lines of this peptide [3]: 575
- normalised SPOT signal, Boehringer light units (BLU); mean over the file's lines of this peptide [4]: 33700
- normalised SPOT signal, Boehringer light units (BLU); mean over the file's lines of this peptide [5]: 264
- normalised SPOT signal, Boehringer light units (BLU); mean over the file's lines of this peptide [6]: 548
- normalised SPOT signal, Boehringer light units (BLU); mean over the file's lines of this peptide [7]: 221

Binder: FGTAKILPEEPSNT [YDR490C 268-281]
- normalised SPOT signal, Boehringer light units (BLU); mean over the file's lines of this peptide [1]: 183
- normalised SPOT signal, Boehringer light units (BLU); mean over the file's lines of this peptide [2]: 7.7
- normalised SPOT signal, Boehringer light units (BLU); mean over the file's lines of this peptide [3]: 23.2
- normalised SPOT signal, Boehringer light units (BLU); mean over the file's lines of this peptide [4]: 35.5
- normalised SPOT signal, Boehringer light units (BLU); mean over the file's lines of this peptide [5]: 153
- normalised SPOT signal, Boehringer light units (BLU); mean over the file's lines of this peptide [6]: 0.1
- normalised SPOT signal, Boehringer light units (BLU); mean over the file's lines of this peptide [7]: 30.3

Binder: FNGDRLVPTLPTVS [YPR095C 191-204]
- normalised SPOT signal, Boehringer light units (BLU); mean over the file's lines of this peptide [1]: 40
- normalised SPOT signal, Boehringer light units (BLU); mean over the file's lines of this peptide [2]: 190
- normalised SPOT signal, Boehringer light units (BLU); mean over the file's lines of this peptide [3]: 2290
- normalised SPOT signal, Boehringer light units (BLU); mean over the file's lines of this peptide [4]: 132
- normalised SPOT signal, Boehringer light units (BLU); mean over the file's lines of this peptide [5]: 161
- normalised SPOT signal, Boehringer light units (BLU); mean over the file's lines of this peptide [6]: 2210
- normalised SPOT signal, Boehringer light units (BLU); mean over the file's lines of this peptide [7]: 750

Binder: FFYRRDIPDVPITT [YDR310C 827-840]
- normalised SPOT signal, Boehringer light units (BLU); mean over the file's lines of this peptide [1]: 839
- normalised SPOT signal, Boehringer light units (BLU); mean over the file's lines of this peptide [2]: 33.9
- normalised SPOT signal, Boehringer light units (BLU); mean over the file's lines of this peptide [3]: 253
- normalised SPOT signal, Boehringer light units (BLU); mean over the file's lines of this peptide [4]: 15400
- normalised SPOT signal, Boehringer light units (BLU); mean over the file's lines of this peptide [5]: 138
- normalised SPOT signal, Boehringer light units (BLU); mean over the file's lines of this peptide [6]: 838
- normalised SPOT signal, Boehringer light units (BLU); mean over the file's lines of this peptide [7]: 362

Binder: FEEDKMTPSTPVRS [YJR092W 847-860]
- normalised SPOT signal, Boehringer light units (BLU); mean over the file's lines of this peptide [1]: 65
- normalised SPOT signal, Boehringer light units (BLU); mean over the file's lines of this peptide [2]: 7.9
- normalised SPOT signal, Boehringer light units (BLU); mean over the file's lines of this peptide [3]: 59.7
- normalised SPOT signal, Boehringer light units (BLU); mean over the file's lines of this peptide [4]: 12
- normalised SPOT signal, Boehringer light units (BLU); mean over the file's lines of this peptide [5]: 248
- normalised SPOT signal, Boehringer light units (BLU); mean over the file's lines of this peptide [6]: 11100
- normalised SPOT signal, Boehringer light units (BLU); mean over the file's lines of this peptide [7]: 3920

Binder: FGSNKNNPVPPELT [YIL125W 149-162]
- normalised SPOT signal, Boehringer light units (BLU); mean over the file's lines of this peptide [1]: 30.7
- normalised SPOT signal, Boehringer light units (BLU); mean over the file's lines of this peptide [2]: 13.4
- normalised SPOT signal, Boehringer light units (BLU); mean over the file's lines of this peptide [3]: 27.1
- normalised SPOT signal, Boehringer light units (BLU); mean over the file's lines of this peptide [4]: 58.8
- normalised SPOT signal, Boehringer light units (BLU); mean over the file's lines of this peptide [5]: 172
- normalised SPOT signal, Boehringer light units (BLU); mean over the file's lines of this peptide [6]: 70
- normalised SPOT signal, Boehringer light units (BLU); mean over the file's lines of this peptide [7]: 37.5

Binder: FLHSKKIPEVPQTD [YGR281W 89-102]
- normalised SPOT signal, Boehringer light units (BLU); mean over the file's lines of this peptide [1]: 1190
- normalised SPOT signal, Boehringer light units (BLU); mean over the file's lines of this peptide [2]: 8.2
- normalised SPOT signal, Boehringer light units (BLU); mean over the file's lines of this peptide [3]: 15.3
- normalised SPOT signal, Boehringer light units (BLU); mean over the file's lines of this peptide [4]: 37.9
- normalised SPOT signal, Boehringer light units (BLU); mean over the file's lines of this peptide [5]: 288
- normalised SPOT signal, Boehringer light units (BLU); mean over the file's lines of this peptide [6]: 15.3
- normalised SPOT signal, Boehringer light units (BLU); mean over the file's lines of this peptide [7]: 25.6

Binder: FLLKKMFPAPPLPT [YDL172C 130-143]
- normalised SPOT signal, Boehringer light units (BLU); mean over the file's lines of this peptide [1]: 149
- normalised SPOT signal, Boehringer light units (BLU); mean over the file's lines of this peptide [2]: 27.9
- normalised SPOT signal, Boehringer light units (BLU); mean over the file's lines of this peptide [3]: 52.4
- normalised SPOT signal, Boehringer light units (BLU); mean over the file's lines of this peptide [4]: 235
- normalised SPOT signal, Boehringer light units (BLU); mean over the file's lines of this peptide [5]: 23700
- normalised SPOT signal, Boehringer light units (BLU); mean over the file's lines of this peptide [6]: 132
- normalised SPOT signal, Boehringer light units (BLU); mean over the file's lines of this peptide [7]: 40.3

Binder: FIKNKAKPLIPIEL [YJL201W 254-267]
- normalised SPOT signal, Boehringer light units (BLU); mean over the file's lines of this peptide [1]: 410
- normalised SPOT signal, Boehringer light units (BLU); mean over the file's lines of this peptide [2]: 10.9
- normalised SPOT signal, Boehringer light units (BLU); mean over the file's lines of this peptide [3]: 952
- normalised SPOT signal, Boehringer light units (BLU); mean over the file's lines of this peptide [4]: 700
- normalised SPOT signal, Boehringer light units (BLU); mean over the file's lines of this peptide [5]: 656
- normalised SPOT signal, Boehringer light units (BLU); mean over the file's lines of this peptide [6]: 146
- normalised SPOT signal, Boehringer light units (BLU); mean over the file's lines of this peptide [7]: 72

Binder: FENRKHQPFTPKGM [YKL171W 669-682]
- normalised SPOT signal, Boehringer light units (BLU); mean over the file's lines of this peptide [1]: 126
- normalised SPOT signal, Boehringer light units (BLU); mean over the file's lines of this peptide [2]: 0.7
- normalised SPOT signal, Boehringer light units (BLU); mean over the file's lines of this peptide [3]: 148
- normalised SPOT signal, Boehringer light units (BLU); mean over the file's lines of this peptide [4]: 616
- normalised SPOT signal, Boehringer light units (BLU); mean over the file's lines of this peptide [5]: 211
- normalised SPOT signal, Boehringer light units (BLU); mean over the file's lines of this peptide [6]: 574
- normalised SPOT signal, Boehringer light units (BLU); mean over the file's lines of this peptide [7]: 33.1

Binder: FEYSKYRPLTPSSE [YOR001W 401-414]
- normalised SPOT signal, Boehringer light units (BLU); mean over the file's lines of this peptide [1]: 114
- normalised SPOT signal, Boehringer light units (BLU); mean over the file's lines of this peptide [2]: 111
- normalised SPOT signal, Boehringer light units (BLU); mean over the file's lines of this peptide [3]: 436
- normalised SPOT signal, Boehringer light units (BLU); mean over the file's lines of this peptide [4]: 73.8
- normalised SPOT signal, Boehringer light units (BLU); mean over the file's lines of this peptide [5]: 143
- normalised SPOT signal, Boehringer light units (BLU); mean over the file's lines of this peptide [6]: 485
- normalised SPOT signal, Boehringer light units (BLU); mean over the file's lines of this peptide [7]: 288

Binder: FLQDRVIPIFPHYP [YMR283C 55-68]
- normalised SPOT signal, Boehringer light units (BLU); mean over the file's lines of this peptide [1]: 4.9
- normalised SPOT signal, Boehringer light units (BLU); mean over the file's lines of this peptide [2]: 1.2
- normalised SPOT signal, Boehringer light units (BLU); mean over the file's lines of this peptide [3]: 72.9
- normalised SPOT signal, Boehringer light units (BLU); mean over the file's lines of this peptide [4]: 102
- normalised SPOT signal, Boehringer light units (BLU); mean over the file's lines of this peptide [5]: 261
- normalised SPOT signal, Boehringer light units (BLU); mean over the file's lines of this peptide [6]: 173
- normalised SPOT signal, Boehringer light units (BLU); mean over the file's lines of this peptide [7]: 26.6

Binder: FHPEKLTPYTPMTG [YHR204W 260-273]
- normalised SPOT signal, Boehringer light units (BLU); mean over the file's lines of this peptide [1]: 25.1
- normalised SPOT signal, Boehringer light units (BLU); mean over the file's lines of this peptide [2]: 19.5
- normalised SPOT signal, Boehringer light units (BLU); mean over the file's lines of this peptide [3]: 12.7
- normalised SPOT signal, Boehringer light units (BLU); mean over the file's lines of this peptide [4]: 95.4
- normalised SPOT signal, Boehringer light units (BLU); mean over the file's lines of this peptide [5]: 96.5
- normalised SPOT signal, Boehringer light units (BLU); mean over the file's lines of this peptide [6]: 45.9
- normalised SPOT signal, Boehringer light units (BLU); mean over the file's lines of this peptide [7]: 42

Binder: FQPQRTAPKPPISA [YNL298W 451-464]
- normalised SPOT signal, Boehringer light units (BLU); mean over the file's lines of this peptide [1]: 39.8
- normalised SPOT signal, Boehringer light units (BLU); mean over the file's lines of this peptide [2]: 19.6
- normalised SPOT signal, Boehringer light units (BLU); mean over the file's lines of this peptide [3]: 148
- normalised SPOT signal, Boehringer light units (BLU); mean over the file's lines of this peptide [4]: 4820
- normalised SPOT signal, Boehringer light units (BLU); mean over the file's lines of this peptide [5]: 88300
- normalised SPOT signal, Boehringer light units (BLU); mean over the file's lines of this peptide [6]: 379
- normalised SPOT signal, Boehringer light units (BLU); mean over the file's lines of this peptide [7]: 21.1
